T1: Human CD3eg linker (human)
T1 construct: single-chain construct; also called recombinant human CD3
T1 chain: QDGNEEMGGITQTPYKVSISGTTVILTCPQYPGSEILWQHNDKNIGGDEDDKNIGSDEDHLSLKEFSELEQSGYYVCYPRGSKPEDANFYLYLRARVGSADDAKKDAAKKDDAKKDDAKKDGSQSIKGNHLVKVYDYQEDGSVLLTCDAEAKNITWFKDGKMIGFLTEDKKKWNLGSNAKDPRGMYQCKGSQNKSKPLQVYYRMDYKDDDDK

B1: dBBDu183H V100iY/dBBDu072L (antibody, name in Kabat numbering, V domains shown)
VH: QVQLVESGGGLVQPGRSLRLSCAASGFTFSNAWMHWVRQAPGKGLEWVAQIKDKGNAYAAYYAPSVKGRFTISRDDSKNSIYLQMNSLKTEDTAVYYCHYVHYASASTVLPAFGYDAWGQGTTVTVSS
VL: DIVMTQSPLSLPVTPGEPASISCQASQELVHMNRNTYLHWYQQKPGQAPRLLIYKVSNRFPGVPDRFSGSGSGTDFTLKISRVEAEDVGVYYCAQGTSVPFTFGQGTKLEIK
B2: dBBDu183H Y97R/dBBDu072L (antibody, name in Kabat numbering, V domains shown)
VH: B1 VH with Y103R, Y115V
VL: B1 VL
B3: dBBDu183H Y94H/dBBDu072L (antibody, name in Kabat numbering, V domains shown)
VH: B1 VH with Y100H, Y115V
VL: B1 VL
B4: dBBDu183H Y97G/dBBDu072L (antibody, name in Kabat numbering, V domains shown)
VH: B1 VH with Y103G, Y115V
VL: B1 VL
B5: dBBDu183H Y94Q/dBBDu072L (antibody, name in Kabat numbering, V domains shown)
VH: B1 VH with Y100Q, Y115V
VL: B1 VL
B6: dBBDu183H Y97K/dBBDu072L (antibody, name in Kabat numbering, V domains shown)
VH: B1 VH with Y103K, Y115V
VL: B1 VL
B7: dBBDu183H Y94D/dBBDu072L (antibody, name in Kabat numbering, V domains shown)
VH: B1 VH with Y100D, Y115V
VL: B1 VL
B8: dBBDu183H Y97Q/dBBDu072L (antibody, name in Kabat numbering, V domains shown)
VH: B1 VH with Y103Q, Y115V
VL: B1 VL
B9: dBBDu183H Y94W/dBBDu072L (antibody, name in Kabat numbering, V domains shown)
VH: B1 VH with Y100W, Y115V
VL: B1 VL
B10: dBBDu183H Y94F/dBBDu072L (antibody, name in Kabat numbering, V domains shown)
VH: B1 VH with Y100F, Y115V
VL: B1 VL
B11: dBBDu183H Y94K/dBBDu072L (antibody, name in Kabat numbering, V domains shown)
VH: B1 VH with Y100K, Y115V
VL: B1 VL
B12: dBBDu183H Y97S/dBBDu072L (antibody, name in Kabat numbering, V domains shown)
VH: B1 VH with Y103S, Y115V
VL: B1 VL
B13: dBBDu183H Y94G/dBBDu072L (antibody, name in Kabat numbering, V domains shown)
VH: B1 VH with Y100G, Y115V
VL: B1 VL
B14: dBBDu183H Y97E/dBBDu072L (antibody, name in Kabat numbering, V domains shown)
VH: B1 VH with Y103E, Y115V
VL: B1 VL
B15: dBBDu183H Y97D/dBBDu072L (antibody, name in Kabat numbering, V domains shown)
VH: B1 VH with Y103D, Y115V
VL: B1 VL
B16: dBBDu183H Y97V/dBBDu072L (antibody, name in Kabat numbering, V domains shown)
VH: B1 VH with Y103V, Y115V
VL: B1 VL
B17: dBBDu183H Y97T/dBBDu072L (antibody, name in Kabat numbering, V domains shown)
VH: B1 VH with Y103T, Y115V
VL: B1 VL
B18: dBBDu183H Y94V/dBBDu072L (antibody, name in Kabat numbering, V domains shown)
VH: B1 VH with Y100V, Y115V
VL: B1 VL
B19: dBBDu183H Y97F/dBBDu072L (antibody, name in Kabat numbering, V domains shown)
VH: B1 VH with Y103F, Y115V
VL: B1 VL
B20: dBBDu183H Y94T/dBBDu072L (antibody, name in Kabat numbering, V domains shown)
VH: B1 VH with Y100T, Y115V
VL: B1 VL
B21: dBBDu183H Y97N/dBBDu072L (antibody, name in Kabat numbering, V domains shown)
VH: B1 VH with Y103N, Y115V
VL: B1 VL
B22: dBBDu183H Y94E/dBBDu072L (antibody, name in Kabat numbering, V domains shown)
VH: B1 VH with Y100E, Y115V
VL: B1 VL
B23: dBBDu183H Y94S/dBBDu072L (antibody, name in Kabat numbering, V domains shown)
VH: B1 VH with Y100S, Y115V
VL: B1 VL
B24: dBBDu183H Y94N/dBBDu072L (antibody, name in Kabat numbering, V domains shown)
VH: B1 VH with Y100N, Y115V
VL: B1 VL
B25: dBBDu183H Y97H/dBBDu072L (antibody, name in Kabat numbering, V domains shown)
VH: B1 VH with Y103H, Y115V
VL: B1 VL
B26: dBBDu183H Y94R/dBBDu072L (antibody, name in Kabat numbering, V domains shown)
VH: B1 VH with Y100R, Y115V
VL: B1 VL
B27: dBBDu183H Y97W/dBBDu072L (antibody, name in Kabat numbering, V domains shown)
VH: B1 VH with Y103W, Y115V
VL: B1 VL
B28: CE115HA000 H35A one-arm antibody (antibody, human IgG1, kappa, L234A L235A, N297A, name in Kabat numbering)
heavy: QVQLVESGGGVVQPGRSLRLSCAASGFTFSNAWMAWVRQAPGKGLEWVAQIKAKSNNYATYYAESVKGRFTISRDDSKNSLYLQMNSLKTEDTAVYYCRYVHYGAYYGVDAWGQGTTVTVSSASTKGPSVFPLAPSSKSTSGGTAALGCLVKDYFPEPVTVSWNSGALTSGVHTFPAVLQSSGLYSLSSVVTVPSSSLGTQTYICNVNHKPSNTKVDKKVEPKSCDKTHTCPPCPAPEAAGGPSVFLFPPKPKDTLMISRTPEVTCVVVDVSHEDPEVKFNWYVDGVEVHNAKTKPREEQYASTYRVVSVLTVLHQDWLNGKEYKCKVSNKALPAPIEKTISKAKGQPREPQVYTLPPSRCELTKNQVSLSCAVKGFYPSDIAVEWESNGQPENNYKTTPPVLDSDGSFFLVSKLTVDKSRWQQGNVFSCSVMHEALHNHYTQKSLSLSPDYKDDDDK
chain: EPKSSDKTHTCPPCPAPELLGGPSVFLFPPKPKDTLMISRTPEVTCVVVDVSHEDPEVKFNWYVDGVEVHNAKTKPREEQYNSTYRVVSVLTVLHQDWLNGKEYKCKVSNKALPAPIEKTISKAKGQPREPQVCTLPPSRDELTKNQVSLWCLVKGFYPSDIAVEWESNGQPENNYKTTPPVLDSDGSFFLYSKLTVDKSRWQQGNVFSCSVMHEALHNRYTQKSLSLSP
light: DIVMTQSPLSLPVTPGEPASISCRSSQSLVHSNRNTYLHWYQQKPGQAPRLLIYKVSNRFSGVPDRFSGSGSGTDFTLKISRVEAEDVGVYYCGQGTQVPYTFGQGTKLEIKRTVAAPSVFIFPPSDEQLKSGTASVVCLLNNFYPREAKVQWKVDNALQSGNSQESVTEQDSKDSTYSLSSTLTLSKADYEKHKVYACEVTHQGLSSPVTKSFNRGEC
B29: CE115HA000 A52aS one-arm antibody (antibody, human IgG1, kappa, L234A L235A, N297A, name in Kabat numbering)
heavy: B28 heavy with A35H, A53S
chain: B28 chain
light: B28 light
B30: CE115HA000 A52aE one-arm antibody (antibody, human IgG1, kappa, L234A L235A, N297A, name in Kabat numbering)
heavy: B28 heavy with A35H, A53E
chain: B28 chain
light: B28 light
B31: CE115HA000 A32Y one-arm antibody (antibody, human IgG1, kappa, L234A L235A, N297A, name in Kabat numbering)
heavy: B28 heavy with A32Y, A35H
chain: B28 chain
light: B28 light
B32: CE115HA000 A52aP one-arm antibody (antibody, human IgG1, kappa, L234A L235A, N297A, name in Kabat numbering)
heavy: B28 heavy with A35H, A53P
chain: B28 chain
light: B28 light
B33: CE115HA000 A52aG one-arm antibody (antibody, human IgG1, kappa, L234A L235A, N297A, name in Kabat numbering)
heavy: B28 heavy with A35H, A53G
chain: B28 chain
light: B28 light
B34: CE115HA000 A52aD one-arm antibody (antibody, human IgG1, kappa, L234A L235A, N297A, name in Kabat numbering)
heavy: B28 heavy with A35H, A53D
chain: B28 chain
light: B28 light

Numbering of substitutions follows the chain as printed. Names may count otherwise.

T2 sequence (P07766 23-126): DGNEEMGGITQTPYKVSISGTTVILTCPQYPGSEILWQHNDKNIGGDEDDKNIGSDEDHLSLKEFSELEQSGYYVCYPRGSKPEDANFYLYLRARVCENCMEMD

The target in one test is T1, Human CD3eg linker. Briefly: SPR, vs unmutated H183/L072. In general terms: In SPR one partner is held on a chip, and binding of the other changes the refractive index at the surface.
Turning to B1, the “fold change of affinity” value worked out at 3 fold.
Still for that read-out and setting: in the case of B2 it was 0 fold; in that of B3, 0.5 fold; in that of B4, 0 fold.
Take B5: the “fold change of affinity” value came out at 0.4 fold.
Still for that read-out and setting: in the case of B6 it was 0 fold; in that of B7, 0 fold; in that of B8, 0 fold.
The same measure, in the same setting: in the case of B9 it was 0.4 fold.
Still for that read-out and setting: in the case of B10 it was 0.4 fold.
In the case of B11, the “fold change of affinity” value is 0 fold.
The same measure, in the same setting: in the case of B12 it was 0 fold.
As for B13, the “fold change of affinity” value was 1.1 fold.
The same measure, in the same setting: the result for B14 reads 0 fold; that for B15, 0 fold.
Same read-out and setting: in the case of B16 it was 0 fold; in that of B17, 0 fold; in that of B18, 2.6 fold.
Same read-out and setting: in the case of B19 it was 0 fold; in that of B20, 0.3 fold; in that of B21, 0 fold.
B22: the “fold change of affinity” value was 0 fold.
Still for that read-out and setting: the result for B23 reads 0 fold.
On the same count and under the same terms, in the case of B24 it was 0 fold; in that of B25, 0 fold.
The same measure, in the same setting: the result for B26 reads 0.3 fold; that for B27, 0.2 fold.

A further test has as its target T2, CD3 epsilon homodimer protein (UniProt P07766 23-126).
T2 construct: immobilized on Sensor chip CM4 by amine coupling; also called CD3 (CD3 epsilon)
Briefly: SPR (Biacore T200), CD3 epsilon homodimer on CM4 chip, one-arm antibody as analyte, 25 C.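 Further: homodimer attached to the sensor surface via amine coupling, HBS-EP+ used as running buffer during binding runs.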
As to B28, the “ratio of amounts bound (altered form / CE115HA000)” value came out at 0.17.
Same read-out and setting: the result for B29 reads 1.05; that for B30, 0.57.
B31: the “ratio of amounts bound (altered form / CE115HA000)” value stood at 0.33.
Turning to B32, the “ratio of amounts bound (altered form / CE115HA000)” value worked out at 0.15.
Same read-out and setting: in the case of B33 it was 0.81; in that of B34, 1.34.
